Source: patent publication US20200291123A1 (PB IMMUNE THERAPEUTICS, published 2020)

Biological target: T1, His-tagged CD40 antigen (human, UniProt P25942 21-193, limits assumed)
T1 construct: Captured on an anti-His antibody on a CM5 chip; not shown: His tag
Assay: SPR, Biacore T200, CM5 chip, His-tagged CD40 captured on anti-His antibody
From the text: That is, the anti-His antibody was immobilized on the surface of the CM5 sensor chip by an amine coupling method. His-tagged CD40 antigen was captured by reacting the His-tagged CD40 antigen with the antibody and then the captured antigen was reacted with sensor chip coated with an anti-his antibody. The results were read using biocore T200 (GE Healthcare).

T1 sequence (P25942 21-193 limits assumed): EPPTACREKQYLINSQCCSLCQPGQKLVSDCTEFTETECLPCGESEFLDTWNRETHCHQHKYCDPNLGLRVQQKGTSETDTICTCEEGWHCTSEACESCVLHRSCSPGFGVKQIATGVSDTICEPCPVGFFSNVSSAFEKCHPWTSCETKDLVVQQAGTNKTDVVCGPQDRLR

Kd: 0.494 nM
koff: 0.000234 s⁻¹
kon: 474000 M⁻¹ s⁻¹
B1: anti-CD40 antibody RM8G-1 (antibody, V domains shown)
VH: LVQLKESGPGLVAPSQSLSITCTVSGFSLTDYGVGWIRQPPGKDLEWLGVMWGGGRTYYNAPLKSRLSISKDNSKSQVFLKMNSLQTDDTAMYYCVKTGQDYAVDYWGQGTSVTVSS
VL: DIVLTQSPASLAVSLGQRATISCRASKSVSTSAYSYMHWYQQKPGQPPKLLIYLASNLESGVPARFSGSGSGTDFTLNIHPVEEEDAATYYCQHSWDLPYTFGGGTKLEIK
notes: Mouse monoclonal antibody from hybridoma RM8G1 (KCLRF-BP-00336); also called RM RM8G-1; anti-CD40 RM8G-1
